In patent publication US20190219601A1 (RAMBAM MED TECH, published 2019):

Legend:
[1] = target: lipidated recombinant human tissue factor (TF) (UniProt P13726); assay: cell-based or functional assay
Target sequence in this assay (P13726 33-295 limits assumed): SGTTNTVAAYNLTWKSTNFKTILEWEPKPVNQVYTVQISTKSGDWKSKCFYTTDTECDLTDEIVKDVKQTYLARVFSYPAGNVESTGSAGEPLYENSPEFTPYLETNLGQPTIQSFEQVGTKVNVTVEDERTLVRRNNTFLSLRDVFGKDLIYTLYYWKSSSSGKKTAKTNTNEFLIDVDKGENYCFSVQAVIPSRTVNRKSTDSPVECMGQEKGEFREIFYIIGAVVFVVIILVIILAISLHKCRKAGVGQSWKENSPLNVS

[2] = target: lipidated recombinant human tissue factor (TF) (UniProt P13726)
Target sequence in this assay (P13726 33-295): as the sequence (P13726 33-295 limits assumed) above

[3] = target: lipidated recombinant human tissue factor (TF) (human, UniProt P13726 33-295, limits assumed); assay: cell-based or functional assay

enzymatically inactive heparanase (double mutant), mutated at Glu225 and Glu343 (from UniProt Q9Y251 36-543) (enzyme)
factor Xa generation with conditioned medium of HEK-293 cells (chromogenic substrate; TF, factor VIIa, factor X) [1]: 2 fold

full-length human heparanase (65 kDa) (from UniProt Q9Y251 36-543) (enzyme)
factor Xa generation with conditioned medium of HEK-293 cells (chromogenic substrate; TF, factor VIIa, factor X) [1]: 2 fold

recombinant active heparanase GS3 (single chain GS3 active heparanase gene construct comprising the 8 and 50 kDa heparanase subunits)
factor Xa level (chromogenic substrate; purified TF, factor VIIa, factor X) [2]: Addition of heparanase induced 2 folds increase in Xa level | thrombin generation (chromogenic substrate; TF, factor VIIa, factor X, prothrombin) [2]: Note a 3-fold increase in coagulation activity in the presence of heparanase.

B1: recombinant active heparanase GS3 (single chain GS3 active heparanase gene construct comprising the 8 and 50 kDa heparanase subunits) (enzyme)
chain: QDVVDLDFFTQEPLHLVSPSFLSVTIDANLATDPRFLILLGSPKLRTLARGLSPAYLRFGGTKTDFLIFDPKKESTFEERSYWQSQVNQDICKYGSIPPDVEEKLRLEWPYQEQLLLREHYQKKFKNSTYSRSSVDVLYTFANCSGLDLIFGLNALLRTADLQWNSSNAQLLLDYCSSKGYNISWELGNEPNSFLKKADIFINGSQLGEDFIQLHKLLRKSTFKNAKLYGPDVGQPRRKTAKMLKSFLKAGGEVIDSVTWHHYYLNGRTATKEDFLNPDVLDIFISSVQKVFQVVESTRPGKKVWLGETSSAYGGGAPLLSDTFAAGFMWLDKLGLSARMGIEVVMRQVFFGAGNYHLVDENFDPLPDYWLSLLFKKLVGTKVLMASVQGSKRRKLRVYLHCTNTDNPRYKEGDLTLYAINLHNVTKYLRLPYPFSNKQVDKYLLRPLGPHGLLSKSVQLNGLTLKMVDDQTLPPLMEKPLRPGSSLGLPAFSYSFFVIRNAKVAACI
factor Xa generation at reduced TF levels (absorbance at 405 nm) [3]: 3 fold | factor Xa generation with conditioned medium of HEK-293 cells (chromogenic substrate; TF, factor VIIa, factor X) [3]: 2 fold
